Here are results for 1 molecule from paper PMC10145556.

This experiment has as its target T1, LHRH receptor (LHRH-R) (human (endogenous in MCF-7 and Hs68)) (UniProt P30968).
T1 sequence: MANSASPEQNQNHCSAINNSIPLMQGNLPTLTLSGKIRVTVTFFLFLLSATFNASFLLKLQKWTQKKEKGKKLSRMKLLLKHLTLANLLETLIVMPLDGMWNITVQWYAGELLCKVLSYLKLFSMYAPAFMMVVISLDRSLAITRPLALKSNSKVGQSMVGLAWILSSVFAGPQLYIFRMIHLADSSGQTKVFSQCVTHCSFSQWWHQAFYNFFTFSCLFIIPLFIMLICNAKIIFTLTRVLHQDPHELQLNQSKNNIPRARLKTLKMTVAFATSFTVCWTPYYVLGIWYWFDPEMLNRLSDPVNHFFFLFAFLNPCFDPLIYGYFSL

B1: LHRH-BinBC (luteinizing hormone-releasing hormone peptide fused through a GSG linker to the N-terminus of the pore-forming C-terminal domain of BinB) (protein)
chain: QHWSYGLRPGGSGIPQLPQTSLLENIPEPTSLDDSGVLPKDAVRAVKGSALLPCIIVHDPNLNNSDKMKFNTYYLLEYKEYWHQLWSQIIPAHQTVKIQERTGISEVVQNSMIEDLNMYIGADFGMLFYFRSSGFKEQITRGLNRPLSQTTTQLGERVEEMEYYNSNDLDVRYVKYALAREFTLKRVNGEIVKNWVAVDYRLAGIQSYPNAPITNPLTLTKHTIIRCENSYDGHIFKTPLIFKNGEVIVKTNEELIPKINQ
Consider B1, for which the IC50 of inhibition of MCF-7 cell proliferation (MTT assay, 48 h, 1-16 μM LHRH-BinBC) is 11 µM.
